Assay: soluble on expression in E. coli; label from the status in PepcDB or PDB records
With “MKKKGKFLLFTMDEFDQWLLETRFSRSVKLVQNHHTYLPGYVQFTGSNHFGLLEGMEHFHMAERGFSEIAQNLTSFPDGTVAVCRSIDKVPCGIKGANQEGICLENLGNFDAGGDTMTPAHRDAIVKINALLCREFNLTPNTDSIVYHHWYDLNSGKRTGGSGTTKTCPGTAFFGGNSMDAAAATFIPLVAQTLAQLTGGTAPSAPVPLKSGEVVASSLNVRAGRGTEFPVVKGLKRGVRVNVFETADGWVRIHPTEQQWVAERYLRYAAAALEHHHHHH” the “soluble on expression in E. coli” value was “soluble”.
With “MFTGLVEAIGVVKDVQGTIDNGFAMKIEAPQILDDCHTGDSIAVNGTCLTVTDFDRYHFTVGIAPESLRLTNLGQCKAGDPVNLERAVLSSTRMGGHFVQGHVDTVAEIVEKKQDGEAIDFTFRPRDPFVLKYIVYKGYIALDGTSLTITHVDDSTFSIMMISYTQSKVIMAKKNVGDLVNVEVDQIGKYTEKLVEAHIADWIKKTQA” the “soluble on expression in E. coli” value was “soluble”.
For “MASSEGLASVDPWSFRQNFNIDSWLLSDSFSHDSDILAKALHRSISTSTESSPLSPSSFFDSSTAAVDFSPPQTLSNVSFGSDPEIPAASALGLGKRKRGPGVSGGKQTKRRSRVSNKKSQTTFITADAANFRQMVQQVTGAKFLGSSNSIFAPIVKPEPHRLASRLPPSCGNLDRSSAVPTLDTSSFLSNHHQENIITDLGAPTGSFHHQSSAGTTTANVGGGSSAVELDSYPSFPTLESWKVM”, the “soluble on expression in E. coli” value was “not soluble”.
For “MGSDKIHHHHHHVSDLEWVLAIPHEQAFKRMEEPWGGAKTSYLTGIKETLEANYGPIHFTRLYFGEEFCERALSTGKALEEAVAAAEERGWGFTYVTPYLTETGLTKVRLLLDILAQTKPEAEVVINDWGVLDWVTEHHPTFTPVLGRLMNKIIRDPRMPDSLRNSPDQTVMHKFRTCNLAGGEMKDLLDQYQVKRIELDYPPQGLDPNLPAWGYDISLSIPYGVIMTGRICLMQSWGLAAGEKFRTTGPCPRRCRLGWLELSDPSGRVKKDQDWQIMQKGNTVFYRQSKEFLAEILTEAEKTGVSRMIFQPEPI”, the “soluble on expression in E. coli” value was “not soluble”.
In the case of “MTEQQKFKVLADQIKISNQLDAEILNSGELTRIDVSNKNRTWEFHITLPQFLAHEDYLLFINAIEQEFKDIANVTCRFTVTNGTNQDEHAIKYFGHCIDQTALSPKVKGQLKQKKLIMSGKVLKVMVSNDIERNHFDKACNGSLIKAFRNCGFDI”, the “soluble on expression in E. coli” value is reported as “not soluble”.
In the case of “MKVLFVCSGGMSSAIVVNALKKEAEKKGVNMEVHAIGTSEVEEEVKNGWDVVMVAPQVRHRFDSVKKFAEEESIPCGIIPPQAYTPLGGPTLLKTVNDLIR”, the “soluble on expression in E. coli” value is reported as “not soluble”.
With “MTDKNPISEAKRYLDNARTILKEKGNKENRFYRDPKYVKMAGHTAYAGVLLALDACFGDKTKGRKDVGWYKEQLSGMDKTALKNFISAYDLLHVAMSYDGNTDSDIAKLGLTRADEIILWVEQRTVTC” the “soluble on expression in E. coli” value was “soluble”.
With “MSLSAELLTSRDQQNFVVRATRADDVTIDVTSEAKWSVGDEKIVKLQGTTLLPAADGETKLTIEYSGFKSEVPVKVEQAGAERAVSFKQDVMPVFMRSGCNTGSCHGAARGKDGFRLSLFGFDPNGDYDRVTRELAARRINLAVPEASLLMEKAIGSVPHTGGKLFDQDSEYYSTLLRWLETGAQRDASEPPLCEKIEIYPPKAVLEGEGAKQQFIVKGFYADGTTRDITDLAVFLTSNDNSVPVGKDGMAVAANRGEAFVMARFDTHTVGSQVIVLPKDLNYEKPAIEGNYIDKLVGAKLHKLRITPSGLCTDEEYLRRVTIDITGQLPSEEEYAEFMADQSADKRVKLVDRLLERKEFAEIWAMKWAQLLMIKSENNRVSYKSAFLYNSWLQEKIANGVPLDEMVREMLGATGGTFSNPPTNFYEIERDTLKTAENVAQVFMGIRTQCAQCHNHPFDRWTMDDYYSFAAFFAQVGRKNAEDEREGHHHHHH” the “soluble on expression in E. coli” value was “not soluble”.
For “MNNALYNQIRIFQSIAREGNISAAARKLEITPPSVSNALRLLEEHIGHPLFVRTTRRIELTETGQQLLEQTAAAVETLEKSLEIIRDQNQEPSGAVRITLSRFAYLLILKPAMAAFCQQYPGIQLEISVYDGTVNIIEERFDLGIRFGDILEGGVVARPLMKPFREGLYASSAYLAEYGVPAMPADLHHHRLIGYRFITNNRILPLILNDHGEQLTVEMPGQLISNDIDVMADGIRHGLGIGRLFEPILQLQPDREQFIPVMEDYWKTYPPVYLYYPKNAGRTKRVKALIDFLIMYAADDAEKIGSSR”, the “soluble on expression in E. coli” value was “not soluble”.
For “MKKINKGKSLSRFQLVSTLSVLGAMGLAGNVHAAEAFAADSPWMTGDWNGKRTELLDKGYDFSLEYVSEMASNLKGGSNDDTTGRYSDQFALGMKVDLQKVLGWQDAEFKLAITERSGRNISNDRIGDPRAGTLSSSQEVWGRGQTWRLTQMWVKQKYFDGALDVKAGRFGPGEDFNSFPCDFQNLSFCGSQVGNYVNTWYNWPISQWALRVKYNITPEVYAQVGVYEQNPSNLETGNGFKLSGSGTKGMILPVELVWTPTVNSLPGEYRVGYYKSTPNADDVYEDVNGQPQAATGAAFKSHDSKHGWWVVAQQQLTSHNGDASRGLSIFANATVHDKETNFVDNYQQIGLTYKGPFNSRPKDDIGVGIARIHVNDDVQDRVRLANQISGINDFDNPGYLPVQSTEYNSEIYYGFHVTNWLTVRPNLQFIKHPGGVDQVDDAIVAGIKIQSKF”, the “soluble on expression in E. coli” value was “not soluble”.
In the case of “MLNSFKLSLQYILPKLWLTRLAGWGASKRAGWLTKLVIDLFVKYYKVDMKEAQKPDTASYRTFNEFFVRPLRDEVRPIDTDPNVLVMPADGVISQLGKIEEDKILQAKGHNYSLEALLAGNYLMADLFRNGTFVTTYLSPRDYHRVHMPCNGILREMIYVPGDLFSVNHLTAQNVPNLFARNERVICLFDTEFGPMAQILVGATIVGSIETVWAGTITPPREGIIKRWTWPAGENDGSVALLKGQEMGRFKLGSTVINLFAPGKVNLVEQLESLSVTKIGQPLAVSTETFVTPDAEPAPLPAEEIEAEHDASPLVDDKKDQVMGHHHHHHSH”, the “soluble on expression in E. coli” value is reported as “not soluble”.
In the case of “MFILKDVTYKDILHIPYLQIQKEKITCIIGESGSGKSTLLRMLNDLQSPTSGIIEYNGKLISDYPPIQLRRDVVMLGQTPPIFDGTIKDNLLMGLRLSEKPFPNDDILRSALKTISLEKNLEDNADSLSGGEKQRLAFARIVLMDPPVYLLDEPTSALDSDTERRVMKQFTTLAREKKKTVIFITHSQQLPEEIADDIIEISKANGATRKEVLSVEGRY”, the “soluble on expression in E. coli” value is reported as “not soluble”.
With “MSLTTKDHSLATESPTLQQLGEFAVIDRLVRGRRQPATVLLGPGDDAALVSAGDGRTVVSTDMLVQDSHFRLDWSTPQDVGRKAIAQNAADIEAMGARATAFVVGFGAPAETPAAQASALVDGMWEEAGRIGAGIVGGDLVSCRQWVVSVTAIGDLDGRAPVLRSGAKAGSVLAVVGELGRSAAGYALWCNGIEDFAELRRRHLVPQPPYGHGAAAAAVGAQAMIDVSDGLLADLRHIAEASGVRIDLSAAALAADRDALTAAATALGTDPWPWVLSGGEDHALVACFVGPVPAGWRTIGRVLDGPARVLVDGEEWTGYAGWQSFGEPDNQGSLGEGHHHHHH” the “soluble on expression in E. coli” value was “soluble”.
For “MYFLTSSLPTTLMNVALTSWARAFAINVFPQPGGPYKRTPFGGSIPTSSKSSGCLRGSSMASLNSCSCFFKPPISLYVTFGLSMTSNPSTVGSLDVGSISTTAIVLLEHHHHHH”, the “soluble on expression in E. coli” value was “not soluble”.
For “MYNFFRTVPRANRNEITFYPDYEEEGQKKKKTRSMFSWLGGDSSKKKNKEVLETVSEGLRKIYKQKLLPLEEFHKFHDFHSPALDDPDFDAKPMILLVGQYSTGKTTFIRYLLESDFPGIRIGPEPTTDRFIAVMHGDEEGSIPGNALVVDAKKQFRALSGFGNAFLNRFQCSTLPNQVLESVTIVDTPGILSGEKQRIDRGYDFTGVLEWFAERVDRIILLFDAHKLDISDEFKRCIEALAGNEDKIRIVLNKSDMVDHQQLMRVYGALMWSLGKVFKTPEVSRVYLGSFWDHPLHYDLNRRLFQDEQHDLFQDLQALPRNAALRKLNDLIKRARLAKVHAYIIAELRKQMPSMIGKDKKKKDLIQNLDKIYEQLQREHNISPGDFPDVNKMREKLQTQDFSKFNPLKPKLLEVVDGMLATDIARLMAQIPKEEAAAPAGSNGSADPTVRGGAFSQTTEAETPFGFGRGEGFDKGADEAEWVVSRERTTADSTFESLGPVNGYLSGRAAKEHMVKSKLPNSVLGKVWKLADIDKDGQLDADEFALANYLINLKLEGHEIPSELPKHLIPPSKRGEQDPVYPSLNDNDE”, the “soluble on expression in E. coli” value was “soluble”.
With “SNAMSRAKKWVQYFLSHRHVTMELIHKIDEAHYDYKPTPTSMTAKQLATHMLFSFYNFANTAKHGDPSLFRQKIEEPETNLAKLAETYTEKTRQLIESMSDDDFDRTLDLTAIFGTQMSTAQFLQLAMDHEIHHKGQLFVYVRGMGHTDLPLFVKRG” the “soluble on expression in E. coli” value was “soluble”.
In the case of “SLYQVVLGKVSTLSAGQLPDALIAQAPQGVRRASWLAGRVLLSRALSPLPEMVYGEQGKPAFSAGAPLWFNLSHSGDTIALLLSDEGEVGCDIEVIRPRDNWRSLANAVFSLGEHAEMEAERPEQQLAAFWRIWTRKEAIVKQRGGSAWQIVSVDSTLPSALSVSQCQLDTLSLAVCTPTPFTLTPQTITKAL”, the “soluble on expression in E. coli” value is reported as “not soluble”.
In the case of “VGKPKMDVDLLQVDADLKKEIFDAYYNTMKTAVMTEEKLAREVEIDKVKDTVKEVYAEKFSEHEEEAQLLKEVKQIAEDLEKDVVRELITIDKIRPDGRKLDEIRH”, the “soluble on expression in E. coli” value is reported as “not soluble”.
With “RDLLEQSLPDDIEEEIEKIICSESMVKGVRRIRTRNIGNYYAVEADILMDGGLSVALSHAATQRVEKLLRGRYGQPTHIVIHVEPFS” the “soluble on expression in E. coli” value was “not soluble”.
With “MIQIVRDNFPGLETAEQLEDYKKTVIKNIERKTALFTKSDNGNIVGVLIFSYYSKCLSCMAVHPDYRKMGIGYAMVKKMIDLFPKDMDISVTTFREGDLKGVAPRAPYKKIGFLEDEFVEEFNYPHQKFIFRNRP” the “soluble on expression in E. coli” value was “not soluble”.
For “MKKWFPALLFSLCVSGESSAWNNIVFYSLGDVNSYQGGNVVITQRPQFITSWRPGIATVTWNQCNGPEFADGFWAYYREYIAWVVFPKKVMTQNGYPLFIEVHNKGSWSEENTGDNDSYFFLKGYKWDERAFDAGNLCQKPGEITRLTEKFDDIIFKVALPADLPLGDYSVKIPYTSGMQRHFASYLGARFKIPYNVAKTLPRENEMLFLFKNIGGCRPSAQSLEIKHGDLSINSANNHYAAQTLSVSCDVPANIRFMLLRNTTPTYSHGKKFSVGLGHGWDSIVSVNGVDTGETTMRWYKAGTQNLTIGSRLYGESSKIQPGVLSGSATLLMILP”, the “soluble on expression in E. coli” value was “soluble”.
In the case of “SLKIKQIVKPGLAVLAAGVLSACATKSNVKADGTTDNPVFPKPYSVTLDNNRGTFPTYDELDLMRPGLTKDDIYKILGRPHYDEGMYGVREWDYLFHFHTPGVGIDPENTSGVEGITTCQYKIIFDKDKFARSFYWNPVFPKDAACPPPAPKAEPQVIIREIVPAKPKRIRQ”, the “soluble on expression in E. coli” value is reported as “soluble”.
In the case of “NLMYYGTFIIDNPVKKGAEKFIAQCREISVPVFVATGDTTKAAENIAKVLCPANAGKIVTLRADQIDEKGIEFLNEENYPSDSTVIFSGINEAILNRFQKLMGREGAKRPVVIFAEMSTEGKGVLARYLKDHHYFVVANGDGTNDVMMMKNSNVVIAHHSDDGTFAPGVDGLTN”, the “soluble on expression in E. coli” value is reported as “not soluble”.
With “MSLKAIAKLRDHCIVCGYGRIGSVVAKELMEEGVALVVIENDPAMIEALETEGILHLAGDATNDELLQAAGIERARALVAALSLDSANVYVVLSAHQINPSMTIVARASEPSHIGKLKLAGADRVFLPHHLGGLRMAQSILRPTVTSFIELAHTRSDLSIQMEELEIGDDSVLVGKTLIESGIRPQYNLIIIGVKRPDGTMHFNPESTYTLQARDTLIAVGFPENFKQFQEILEGHHHHHH” the “soluble on expression in E. coli” value was “soluble”.
With “MITTGKVWKFGDDISTDEITPGRYNLTKDPKELAKIAFIEVRPDFARNVRPGDVVVAGKNFGIGSSRESAALALKALGIAGVIAESFGRIFYRNAINIGIPLLLGKTEGLKDGDLVTVNWETGEVRKGDEILMFEPLEDFLLEIVREGGILEYIRRRGDLCIR” the “soluble on expression in E. coli” value was “soluble”.

Reference: the DeepSol protein solubility set
